Assay [1] addresses human pro-TGF-β1 (C4S, R249A furin-site mutant, N107Q, N147Q), purified (human). Kind of assay: negative-stain electron microscopy.
The target of assay [2] is pro-TGF-β1 prodomain expressed in absence of the growth factor (latency-associated peptide, LAP). Kind of assay: SPR.

Drawing on paper PMC5586147, this text covers stoichiometry N (αVβ6 headpieces per pro-TGF-β1 dimer) and Kd for one substance.

Several values for one entry are separate records, joined by “and”; a condition that tells them apart may be missing. Equal entries are not always repeated.

For “soluble integrin αVβ6 headpiece (from UniProt P06756 31-625; P18564 22-491) (complex)”, the stoichiometry N (αVβ6 headpieces per pro-TGF-β1 dimer) in assay [1] is 2 and 1. Also, the dissociation constant (Kd) (commonly the free concentration of one partner at which half of the binding sites on the other are occupied at equilibrium, for simple one-to-one binding) in assay [2] came out at 7.6 nM.
